The values that follow come from US6899878 (GENETICS INSTITUTE, dated 2005).

The chains are these.
B1: IL-1 receptor p80 (type I) amino acids 477 to 527, wild-type bait from plasmid EG202-IL1R (477-527) (receptor, human, UniProt P14778 494-544, looked up)
chain: QDYEKMPESIKFIKQKHGAIRWSGDFTQGPQSAKTRFWKNVRYHMPVQRRS
modifications: also: fused to LexA (pEG202 bait), residues not given here
notes: range 477-527; positions may be shifted against the UniProt entry; also called WT; original bait; not shown: LexA, fusion partner of baits made in vector pEG202
B4: IL-1 receptor p80 (477-527) mutant bait K515R (receptor)
chain: QDYEKMPESIKFIKQKHGAIRWSGDFTQGPQSAKTRFWRNVRYHMPVQRRS
modifications: also: fused to LexA (pEG202 bait), residues not given here
B6: bicoid (unrelated bait) (other, UniProt P09081 2-160, looked up)
chain: AQPPPDQNFYHHPLPHTHTHPHPHSHPHPHSHPHPHHQHPQLQLPPQFRNPFDLLFDERTGAINYNYIRPYLPNQMPKPDVFPSEELPDSLVMRRPRRTRTTFTSSQIAELEQHFLQGRYLTAPRLADLSAKLALGTAQVKIWFKNRRRRHKIQSDQHK

Ends that are not written are not given here.

Experiment [1] addresses T1, IL-1-R intracellular ligand protein encoded by clone 19w (interaction trap prey) (human, UniProt Q92626 1304-1479).
T1 construct: Prey fusion expressed from pJG4-5 in yeast; believed to be a partial clone of a longer protein
T1 sequence: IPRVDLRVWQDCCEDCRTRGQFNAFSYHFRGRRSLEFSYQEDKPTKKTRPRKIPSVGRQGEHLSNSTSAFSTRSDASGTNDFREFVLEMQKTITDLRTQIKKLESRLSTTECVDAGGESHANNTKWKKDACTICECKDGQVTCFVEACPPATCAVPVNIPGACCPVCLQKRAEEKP
Description: yeast interaction trap, LacZ blueness on plates. The procedure: (§1) Mutations that abolish IL-1R signaling ere introduced into the original bait plasmid, EG202-IL-1R (477–527) (with following amino acid substitutions: F513A, W514A, K515R, R518K, and Y519S) and the ability of the IL-1R intracellular ligands to interact with these mutant proteins was tested in the interaction trap. EGY48 carrying pSH18-34 (lexAop-LacZ) were cotransformed with two plasmids: one carrying 14w, 19w or 31w; the other with bait, EG202-IL1R (477–527), either wild-type or one of the mutants, transformants were then streaked onto CM ura⁻his⁻trp⁻ plates containing galactose/raffinose and β-gal. The strength of interaction (as indicated by the number of "+" signs) was judged by the blueness in the plates (indicator of LacZ expression).

Experiment [2] deals with T2, IL-1-R intracellular ligand protein encoded by clone 14w (interaction trap prey) (human, UniProt P17655 450-700).
T2 construct: Prey fusion expressed from pJG4-5 in yeast
T2 sequence: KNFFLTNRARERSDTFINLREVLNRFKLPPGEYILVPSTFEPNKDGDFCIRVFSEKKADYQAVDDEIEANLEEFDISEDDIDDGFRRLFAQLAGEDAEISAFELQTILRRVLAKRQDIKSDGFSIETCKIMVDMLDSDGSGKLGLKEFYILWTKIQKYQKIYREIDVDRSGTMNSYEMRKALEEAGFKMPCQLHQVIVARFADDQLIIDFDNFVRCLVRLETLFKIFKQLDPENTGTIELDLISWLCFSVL
The experiment can be described thus: yeast interaction trap, LacZ blueness on plates. The procedure: as §1

Experiment [3] concerns the target T1, IL-1-R intracellular ligand protein …. The experiment can be described thus: yeast interaction trap, bait specificity test. An excerpt: (§2) A WI38 cDNA library was transformed into the reporter strain (EGY48/pSH18-34) containing the bait plasmid EG202-IL1R (477–527). 1.3 million primary transformants were harvested and 7 million colonies were screened. 192 galactose-dependent colonies were isolated. Among these, 51 clones were bait specific (i.e., interacted specifically with the original bait, but not with an unrelated bait, bicoid). These clones were then subjected to DNA sequence analysis. Clones 19w was isolated 6, times, clone 31w twice and clone 14w once.

Experiment [4] has as its target T2, IL-1-R intracellular ligand protein …. Description: yeast interaction trap, bait specificity test.
Description: as §2

The target of experiment [5] is B4. Description: yeast interaction trap, LacZ blueness on plates. The procedure: as §1
In experiment [6] the target is B1. Description: yeast interaction trap, LacZ blueness on plates. The procedure:
as §1

The target in the experiment “bicoid (unrelated bait)” is B6. Description: yeast interaction trap, bait specificity test.
Description: as §2

For B1, the binding result in experiment [1] and in experiment [2] was “binds” in each case.

B2: IL-1 receptor p80 (477-527) mutant bait W514A (receptor, human, UniProt P14778 494-544, looked up)
chain: QDYEKMPESIKFIKQKHGAIRWSGDFTQGPQSAKTRFAKNVRYHMPVQRRS
modifications: also: fused to LexA (pEG202 bait), residues not given here
notes: range 477-527; not shown: LexA, fusion partner of baits made in vector pEG202
As to B2, the binding result in experiment [1] and in experiment [2] was “binds” each time.

B3: IL-1 receptor p80 (477-527) mutant bait R518K (receptor, human, UniProt P14778 494-544, looked up)
chain: QDYEKMPESIKFIKQKHGAIRWSGDFTQGPQSAKTRFWKNVKYHMPVQRRS
modifications: also: fused to LexA (pEG202 bait), residues not given here
notes: as for B2
For B3, the binding result in experiment [2] is reported as “binds”.
With B4, the binding result in experiment [1] and in experiment [2] was “binds” throughout.

B5: IL-1 receptor p80 (477-527) mutant bait Y519S (receptor, human, UniProt P14778 494-544, looked up)
chain: QDYEKMPESIKFIKQKHGAIRWSGDFTQGPQSAKTRFWKNVRSHMPVQRRS
modifications: also: fused to LexA (pEG202 bait), residues not given here
notes: as for B2
Consider B5, for which, in experiment [2], the binding result is on record as “binds”.
As to B6, the binding result in experiment [3] and in experiment [4] was “no binding” each time.

B7: IL-1-R intracellular ligand protein encoded by clone 31w (interaction trap prey) (other, not shown: large carriers)
chain: KKGGKTEQDGYQKPTNKHFTQSPKKSVADLLGSFEGKRRLLLITAPKAENNMYVQQRDEYLESFCKMATRKISVITIFGPVNNSTMKIDHFQLDNEKPMRVVDDEDLVDQRLISELRKEYGMTYNDFFMVLTDVDLRVKQYYEVPITMKSVFDLIDTFQSRIKDMEKQKKEGIVCKEEVGGVLELFPINGSSVVEREDVPAHLVKDIRNYFQVSPEYFSMLLVGKDGNVKSWYPSPMWSMVIVYDLIDSMQLRRQEMAIQQSLGMRCQKMSMQAMVTIVTTKDTRMVTRMTTVIMRVITMDTLTEQKYVTLDSASFLCSC
notes: Prey fusion expressed from pJG4-5 in yeast; believed to be a partial clone of a longer protein
As to B7, the binding result in experiment [5] is recorded as “binds”; in experiment [6], “binds”; with bicoid (unrelated bait), “no binding”.
